Measurements reported in US20030170252.

T1: p63^Krsl protein kinase (product of the Krsl gene), endogenous in mouse NIH3T3 cytosolic lysate (S20), Q9JI10
T1 chain: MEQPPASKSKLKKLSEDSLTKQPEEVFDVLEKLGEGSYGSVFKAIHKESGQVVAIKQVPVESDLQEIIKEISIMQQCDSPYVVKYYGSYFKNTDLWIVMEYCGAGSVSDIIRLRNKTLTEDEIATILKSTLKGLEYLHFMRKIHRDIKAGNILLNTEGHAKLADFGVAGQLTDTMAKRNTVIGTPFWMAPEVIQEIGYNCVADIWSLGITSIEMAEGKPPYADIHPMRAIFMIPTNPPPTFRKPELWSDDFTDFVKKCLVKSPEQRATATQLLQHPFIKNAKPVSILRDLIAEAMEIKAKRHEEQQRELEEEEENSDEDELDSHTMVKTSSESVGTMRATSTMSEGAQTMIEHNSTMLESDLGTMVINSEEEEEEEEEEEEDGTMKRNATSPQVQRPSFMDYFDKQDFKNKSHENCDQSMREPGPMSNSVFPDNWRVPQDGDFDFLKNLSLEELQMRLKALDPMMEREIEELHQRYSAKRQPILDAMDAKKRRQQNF


Tests used:
[1] = target: p33^QIK, quiescence induced kinase, 33-kDa Krsl-related cytoplasmic protein kinase, endogenous in mouse NIH3T3 cytosolic lysate (S20)
[2] = target: T1, p63^Krsl protein kinase (product of the …)
[3] = target: p35, protein kinase of 35 kDa in STSP-treated NIH3T3 cells

Row | Protein | kinase activity of p33^QIK in Ab-KQ immune complexes after phosphatase treatment (in-gel kinase assay, MBP substrate) [1] | kinase activity in Ab-KQ immune complexes after caspase-3 treatment (in-gel kinase assay, MBP substrate) [2] | kinase activity in Ab-KQ immune complexes after caspase-3 treatment (in-gel kinase assay, MBP substrate) [3] | kinase activity in Ab-KQ immune complexes after caspase-3 treatment (in-gel kinase assay, MBP substrate) [1]
1 | Lambda protein phosphatase (lambda PPase) (NE BioLabs) (protein) MRYYEKIDGSKYRNIWVVGDLHGCYTNLMNKLDTIGFDNKKDLLISVGDLVDRGAENVECLELITFPWFRAVRGNHEQMMIDGLSERGNVNHWLLNGGGWFFNLDYDKEILAKALAHKADELPLIIELVSKDKKYVICHADYPFDEYEFGKPVDHQQVIWNRERISNSQNGIVKEIKGADTFIFGHTPAVKPLKFANQMYIDTGAVFCGNLTLIQVQGEGA | A similar result was obtained by using Lambda phosphatase in the reaction |  |  | 
2 | Recombinant human Caspase-3 (Alexis Biochemicals) (protein) SGISLDNSYKMDYPEMGLCIIINNKNFHKSTGMTSRSGTDVDAANLRETFRNLKYEVRNKNDLTREEIVELMRDVSKEDHSKRSSFVCVLLSHGEEGIIFGTNGPVDLKKITNFFRGDRCRSLTGKPKLFIIQACRGTELDCGIETDSGVDDDMACHKIPVEADFLYAYSTAPGYYSWRNSKDGSWFIQSLCAMLKQYADKLEFMHILTRVNRKVATEFESFSFDATFHAKKQIPCIVSMLTKELYFYH |  | both the kinase activities of p63^Krsl and p35 decreased in correlation with an increased p33^QIK activity that was completely blocked by a wide range caspase inhibitor Z-D-CH2-DCB | both the kinase activities of p63^Krsl and p35 decreased in correlation with an increased p33^QIK activity that was completely blocked by a wide range caspase inhibitor Z-D-CH2-DCB | no change was detected in the kinase activity of p33^QIK which was isolated from osmotic-stressed quiescent cultures (FIG. 8, lanes 6 to 8) or growing cultures
